In publication PMC3558696 one finds stoichiometry N data, which are given here for one substance.

In the experiment the target is KERP1 (lysine and glutamic acid rich protein 1), recombinant full-length protein (Entamoeba histolytica (strain HM1:IMSS)). The experiment in a line: AUC.

The stoichiometry N is a count of units in the complex or per binding partner. “KERP1 (lysine and glutamic acid rich protein 1), recombinant full-length protein (natural protein)”: the stoichiometry N was determined as 3.
